Data: the nanobody polyreactivity screen of Harvey et al. (2022)

Test: yeast display, Sf9 membrane polyspecificity reagent, FACS + sequencing; frameworks hold sequencing errors
Procedure, shortened: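 Nanobodies came from a synthetic yeast display library in Saccharomyces cerevisiae BJ5465, induced with galactose for 36–48 hours and stained for 1 hour at 4 °C with 10% biotinylated, detergent-solubilized Sf9 membrane reagent. Cells were enriched on streptavidin microbeads and then FACS-sorted, with low and high (top ~1%) gates set on anti-HA fluorescence for expression and streptavidin fluorescence for reagent binding. Each polyreactivity label reflects the gate a clone came from. Genes were amplified by colony PCR, sequenced by MiSeq 2 × 250 and filtered by CDR length.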

| Sequence | polyreactivity (PSR sort gate) |
| --- | --- |
| QVQLVESGGGLVQAGGSLRLSCAASGRIFRVNGMGWDRQAPGKERELVAAIRRSGGSTYYADSVKGRFTISRDNAKNTVYLQMNSLKPEDTAVYYCAAPVRQSSYTRYDSWGQGTQVTVSS | high polyreactivity |
| QVQLVESGGGLVQAGGSLRLSCAASISSINAMGWYRQAPAKEREVVAASRWSGSSTYYADSVKGRFTISRDNAKNTVYLQMNSLKPEDTAGYYCAADTTTGDRGFDYWGQGTQVTVSS | high polyreactivity |
| QVQLVESGGGLVQAGGSLRLSCAASGLIFTVYAMGWYRQAPGKERELVAAISGTGGSTYYADSVKGRFTISRDNAKNTVYLQMNSLIPEDTAVYYCAAVPIIRLATTSSSRGDYWGQGTQVTVSS | low polyreactivity |
| QVQLVESGGGLVQAGGSLRVSCAASGRTCRYYAMGWYRQEHGTEREWVAVISWSGGTTRYADSVKGRFTISRDNAKNTVYIQMNSLKPEDTAVYYCAARVSVWYNYWGQGTQVTVSS | high polyreactivity |
| QVQLVESGGGLVQAGGSLRLSCAASGRTFYINAMGWYRQAPGKERELVATISRSGGDTYYADSVKGRFTISRDNAKNTVYIEMTSLKPEDTAVYFCNARQYYYRSGAYASRYLYNYWGQGTQVTVSS | high polyreactivity |
| QVQLVESGGGLVQAGGSLRLSCAASGSTFYWYAMGWYRQAPGKERELVASITRSGVRTYYADSVKGRFTISRDNAKNTVYLQMNSLKPEDTAVYYCAAERYYFPRSYRYGYWGQGTQVTVSS | low polyreactivity |
| QVQLVESGGGLVQAGGSLRLSCAASGFIFNHYAMAWYRQAPGKEREFVAAISWSGGSTYYADSVNGRFTISLDNAKNTVYLQMNSLKPEDTAVYYCGASYNGLWHGDYDYWGQGTQVTVSS | low polyreactivity |
| QVQLVESGGGLVQAGGSLRLSCAASGFIFYEYAMGWYRQSPGKERELVAGISWSGDSTYYADSVKGRFTISRDNAKNTVYLQMNRLKPEDTAVYYCAADPYYQGYDYWGQGTQVTVSS | low polyreactivity |
| QVQLVESGGGLVQAGGSLRLSCAASGFTFCDYAKGWYRQATGKERELVAAISDNDGSTDYADSVKGRFTISRDNAKNTVYLQMTRLKPEDSAVYYCNAESELPSKEGDYWGLGTQVTVSS | low polyreactivity |
| QVQLVESGGGLVQAGGSLCLSCAASGSTLRRYAMGWYRQAPGKERELVAAITYRSGSTYYADSVKGRFTISRDNAKNTVYLQMNSLKPEDTAVYYCAKVGYVSKYWFAGDYWGQGTQVTVSS | high polyreactivity |
| QVQLVESGGGLVQAGGSLRLSCAASGFTFYYYAMGWYRQAPGKERELVAAITWSGDSTNYADSVKGRFTISRDNAKNTVYLQMNSLKPEDTAVYYCATESYDSYGLYDYWGQGTQVTVSS | low polyreactivity |
| QVQLVESGGGLVQAGGSLRLSCAASGRTFRRYNMGWYRQAPGKERELVAAITTSGGSTYYSDSVKGRFTISRDNAKNTVYLQMNSLIPEDTAVYYCAATRRYSGDYWGQGTQVSVSS | high polyreactivity |
| QVQLVESGGGLVQAGGSLRLSCAASGIIFGKNAMGWYRHAPGKERELVAAISSSGGSTYYADSVKGRFTISRDNAKNTVYLQMNSLKPEDTAVYYCATERGSRRSGSRMDYWGQGTQVTVSS | high polyreactivity |
| QVQLVESGGGLVQAGGSLRLSCAASGITSSYAMGWYRQAPGKERELVAAISRGGSTYYADSVKGRFTISRDTAKNTVYLQMNSLKPEDTAVYYCNKRRYPYGWGQGTQVTVSS | high polyreactivity |
| QVQLVESGGGLVQAGGSLRLSCAASGSIFFRYAMGWYRPAPGKERELVAAISSDGSTYYADSVKGRFTISRDNAKNTVYLQMNSLKPEDTAVYYCNAEQAIFYWYATVTYDYWGQGTQVTVSS | low polyreactivity |
| QVQLVESGGGLVQAGGSLRLSCAASGSIFPDYAMGWYRQAPGKERELVAAITTSGGNTYYADSVKGRFTISRDNAKNTVYLQMNSLKPEDTAVYYCAAEITYSYPGSPRRRDYWGQGTQLTVSS | low polyreactivity |
| QVHLVESGGGLVQAGGSLRLTCAASGSIFAYYTMGWYRQEPGKERELVAAISRTGTSTFYADSVKGRFTISRDNAKNTVDLQMNSLKPEDTSVYYCIAVAPGKYNHWGQGTQVTVSS | high polyreactivity |
| QVQLVESGGGLVQAGGSLRLSCAASGRTFYHNAMGWYRQAPGKERELVATINSGGSTYADSVKGRFTISRDNAKNTVYLQMISLKPEDTAVYYCASTFWSRSRFYYRYDYWGQGTQVTVSS | high polyreactivity |
| QVQLVESGGGLVQAGGSLRLSCAASGSIFPEYAMGWYRQAPGKEREFVATIRWSGDSTYYADSVKGRFTISRDNAKNTVYLQMNSLKPEDTAVYYCAADQGRYGIIGWDDYWGQGTQVTVSS | low polyreactivity |
| QVQLVESAAGLVQAGGSLRLSCAASGLILDEYAMGWYRQAPGKEMELVAAISWSGGSTYYADSVKGRFTISRDNAKNTVYLQMNSLKPEDTAVYYCAADRVWFSDNSYYYWGQGTQVTVSS | high polyreactivity |
| QVQLVESGGGLVQAGGSLRLSCAASGRTFRIYAMGWYLQAPGKERELVAPISGRGGNTYYADSVKGRFTISRDNAKNTVYLHMNSLKPEDTAVYYCAADDATAYRVDGFKYDYWGQGTLVTVSS | high polyreactivity |
| QVQLVESGGGLVQAGGSIRLSCSASGSTFNIYAMGWYRKAPGKERELVAAISGNGDRTYYADSVKGRFTISRDNAKNTVYLQMTSLKPEDTAVYYCAAKYYGWGQGTQVTVSS | high polyreactivity |

| Sequence | polyreactivity (PSR sort gate) |
| --- | --- |
| QVQLVESGGGLVQAGGSLRLSCAAYGSIIRRYAMGWYRQAPGKERELVATISSGSRTYYADSVKGRFTISRDNAKNTVYLQMNSLKPEDTAVYYCNARSRRVGLTLYNYWGQGTQVTVSS | high polyreactivity |
| QVHLLESGGGLVQAGGSLRLSCAAPGSTLFNYDMGWSRQAPGKERELLAAITTSGDSTYYADSVKGRFTISRDNAKNTVYFQMNSLKPEDTAVYYCNADVFKTVFYIDRYYYWGQGTKVTVSS | low polyreactivity |
| QVQLVESGGGLVQAGGSLRLSCAASGRIFYYYAMGWYRQAPGKERELVAGIDSGDSTNYADSVKGRFTISRDNAKNTVYLQMNSLKPEDTAVYYCAALHYGGYFSYYPYYYWGQGTQVTVSS | low polyreactivity |
| QVQLVESGGGLVQAGGSLRLSCAASGRIFARYAMGWYRQAPGKERELVAAIRTSGGITYYADSVKWRFTISRDNAKNTVYLQMNSLKPEDTEVYYCAADFYSYSSVKYDYWGQGTQVTVSS | low polyreactivity |
| QDQLVESGGGLVQAGGSLRLSCAASGRNFYRNAMGWYRPAPGKEWEVVAAITQSSGSTYYADSVKGRCTISRDNAKHTVYLQMNSLKPEDTAVYYCAALVRKYGVDYWGQGTQVTVSS | high polyreactivity |
| QVQLVESGGGLVQAGGSLRLSCAASGRTFVENAMGWYRQAPGKERELVAAITYRGGRTFYADSVKGRFTISRDNAKNTVYLQMNSLKPEDTAVYYCNAVRRTGGHGDYWGQGTQVTVSS | high polyreactivity |
| QVQLVESGGGLVQAGGSLRLSCAASGSIFSYYAMGWDRQAPGKERELVASISWNGTSTYYADSVKGRFTISRDNAKNTVYLQMNSLKPEDTAVYYCNGRFIYRGTYDYWGQGTQVTVSS | low polyreactivity |
| QVQLVESGGGLVQAGGSLRLSCAASGNTFVSNAMGWYRPAPGKERELVAAISSTGNTNYADSVKGRFTISRDNAKNTDYLQMNSLKPEDTAVYYCAKGDKRAYVAYKEGSWGQGTQVTVSS | low polyreactivity |
| QVQLVESGGGLVQAGGSLRVSCAASGSTFSYNAMGWYRQAPGKERELVASINSRGGTTYYADTVKVRFTISRDNAKNTVYLQMKSLKPEDTAVYYCATDVYRLGEYDYWGQGTQVTVSS | low polyreactivity |
| QVQLVESGGGLVQAGGSLRLSCAASGRTFGWYTMGRYRQAPGKEREMVAGISSSGGSTYYADSVKGRFTISRDNAKNTVYLQMNSMKPEDTAVYYFARETYPHGLYYRPYDYWGQGTQVTVSS | low polyreactivity |
| QVQLVESGGGLVQAGGSLRLSCAASGFTFWYYAMGWYRQAPGKERELVAAITRGGSTNYADSVKGRFTISRDNAKNTVYLQMNSLKPEDTAVYYCAKRQGYPTYRRYDYWGQGTQVTVSS | high polyreactivity |
| QVQLVESGGGLVQAGGSLRLSCAASGRILYRNAMGWYRQATGKERELVAAITTRGTSTYYADSVKGRFTISRDNAKNTVYLQMNSLKPEDTSVYYCAADSWFSYRGPLYYWGQGTKVTVSS | high polyreactivity |
| QVQLVESGGGLVQAGGSLRLSCAASGFTFDTNAMGWYRQAPGKERELVAAISWGGDTTYYADSVKGRFTISRDNAKNTVYLQMNSLKTEDTAVYYCNVYWYDWWGYDYWGQGTQVTVSS | high polyreactivity |
| QVQLVESGGGLVQAGGSLRLSCAASGRTFTYYAMGWYRQAPGKERELVAAISRGGGSTHYADSVKGRFTISRDNEKNTVYLQMNSLKPEDTAVYYCAARYSTRYKYDYWGQGTQVTVSS | high polyreactivity |
| QVQLVESGGGLVQAGGSLRLSCAASGIIFVKYARGWSRQAPGKERELVAAITSGGSTYYADSVKGRFTISRDNAKNTVYLQTNSLKPEDTAVYYCNARRNQYLAQYDYWGQGTQVTVSS | high polyreactivity |
| QDKLVESGGGLVQAGGSLRLICAASGFTFNRYALGWYRKAPGKERELVAGITGGGSTKYADSVKGRFTISRDNAKNTVYLQMNSLKPEDTSVYYCNASGYSYGARYYYWGQGTQVTVSS | high polyreactivity |
| QVQLVESGGGLVQAGGSLRLSCAASGFTFQYYAMGWYRQAPGKERELVAAINWSGGRTYYADSVKGRFTISRDNAKNTVYLQMNSLKPEDTAVYYCAATRSFSGGYGYVSYDYWGQGTQVTVSS | high polyreactivity |
| QVQLVESGGGLVQAGGSLRLSCAASGSTFGYNAMGWYRQAPGKERELVAAITRSGGSTDYADSVKGRFTISRDNAKNTVYLQMNSLKPEDTAVYYCAADGDHPWWSQYDYWGQGTQVTVSS | low polyreactivity |
| QVQLVESGGGLVQAGGSLRLSCAASGSIFDYYAMGWYRPAPVKERELVAAISDSGSTYYADSVKGRFTISRDNAKNTVYLQMNSLKPEDTAVYYCAAVLWSPYLSEPLETYEYWGQGTQVTVSS | low polyreactivity |
| QVQLVESGGGLVQAGGSLRLSCAASGRIFTHYAMGWYRQAPGKERELVAAISRTGGTTNYADSVKGRFTISRDNAKNTVYLQMNSLKPEDTADYYCAAVGKGAKDYFKYYSWGQGTQVTVSS | high polyreactivity |
| QVQLVESGGGLVQAGGSLRLSCAASGSIFPYAMGWYRQAPGKERELVAVISWSGASTYYADSVKGRFTISRDNAKNTVYLQMNSLKPEDTAVYYCAVYRYYKLVHLYGYDYWGQGTQVTVSS | high polyreactivity |
